Measurements published in PMC12838526.

Target: F-actin (polymerized rabbit skeletal muscle actin) (rabbit) (UniProt P68135)
Experiment: co-sedimentation

Substance	percent co-sedimented with F-actin	percent co-sedimented with F-actin, αcat ABD added
GST-Cno H+C+FAB-His6 (Cno residues 1560-2051) (domain or fragment)	32%	
Cno FAB peptide (residues 1967-2051), full-length form (domain or fragment)	55%	76%
